Test results as given in patent US20110086770A1.

T1: recombinant human DR 4 receptor Fc fusion protein (R&D Systems) (human)
T1 sequence (O00220 whole entry, looked up): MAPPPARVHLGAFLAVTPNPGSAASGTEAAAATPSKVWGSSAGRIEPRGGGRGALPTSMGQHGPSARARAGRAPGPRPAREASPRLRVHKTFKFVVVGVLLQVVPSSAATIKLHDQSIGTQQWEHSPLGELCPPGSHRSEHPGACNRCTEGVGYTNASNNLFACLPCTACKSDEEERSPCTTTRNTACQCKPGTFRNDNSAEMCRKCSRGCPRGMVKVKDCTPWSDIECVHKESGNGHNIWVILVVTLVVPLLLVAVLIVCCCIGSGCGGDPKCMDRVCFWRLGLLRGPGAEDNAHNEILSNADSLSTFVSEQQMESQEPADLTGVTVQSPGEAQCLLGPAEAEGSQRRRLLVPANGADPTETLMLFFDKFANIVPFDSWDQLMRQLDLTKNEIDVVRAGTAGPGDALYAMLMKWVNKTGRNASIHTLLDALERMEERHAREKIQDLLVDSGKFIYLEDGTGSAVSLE


Assays:
[1] = biological target: recombinant human DR 5 receptor Fc fusion protein (R&D Systems) (human); assay: SPR (Biacore), captured DR5/Fc
Chain of recombinant human DR 5 receptor Fc fusion protein (R&D Systems) (human) (O14763 whole entry, the tested form may be a part): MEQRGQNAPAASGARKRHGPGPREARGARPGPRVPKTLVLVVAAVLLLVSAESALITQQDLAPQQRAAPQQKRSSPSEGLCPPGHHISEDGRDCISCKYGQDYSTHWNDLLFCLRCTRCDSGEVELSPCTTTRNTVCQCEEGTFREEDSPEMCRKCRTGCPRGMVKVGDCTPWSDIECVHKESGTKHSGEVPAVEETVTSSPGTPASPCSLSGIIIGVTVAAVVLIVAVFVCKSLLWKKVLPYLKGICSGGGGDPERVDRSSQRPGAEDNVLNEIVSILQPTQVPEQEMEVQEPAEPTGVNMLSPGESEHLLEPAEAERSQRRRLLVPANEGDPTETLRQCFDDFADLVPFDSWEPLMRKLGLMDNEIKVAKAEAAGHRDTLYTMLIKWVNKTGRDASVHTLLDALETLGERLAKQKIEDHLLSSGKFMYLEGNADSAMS

[2] = biological target: T1, recombinant human DR 4 receptor Fc fusion protein (R&D Systems) (human); assay: SPR (Biacore), captured DR4/Fc

| Ka [1] [M⁻¹] | Kd [1] [nM] | koff [1] [s⁻¹] | kon [1] [M⁻¹ s⁻¹] | Ka [2] [M⁻¹] | Kd [2] [nM] | koff [2] [s⁻¹] | kon [2] [M⁻¹ s⁻¹] | Binder |
| --- | --- | --- | --- | --- | --- | --- | --- | --- |
| 1.74e+08 | 5.74 | 0.000362 | 63000 | – | – | – | – | 4a8c (=A3C) DR 5 ATRIMER (designed binder, from a related filing, part only) EPPTQKPKKIVNAKKDVVNTKMFEELKSRLDTLAQEVALLKEQQALQTVCLKGTKVHMKCFLAFTQTKTFHEASEDCISRGGTLSTPQTGSENDALYEYLRQSVGNEAEIWLGLNRATLRPRWVDMTGARIAYKNWETEITAQPDGGKNCAVLSGAANGKWFDKRCRDQLPYICQFGIV |
| – | – | – | – | 6.58e+06 | 152 | 0.00185 | 12200 | 014-42.3D10 ATRIMER (designed binder, part only; not given: nothing essential, part only) chain, part: EPPTQKPKKIVNAKKDVVNTKMFEELKSRLDTLAQEVALLKEQQALQTVCLKGTKVHMKCFLAFTQTKTFHEASEDCISRGGTLSTPQTGSENDALYEYLRQSVGNEAEIWLGLNVDMTGARIAYKNWETEITAQPCAVLSGAANGKWFDKRCRDQLPYICQFGIV |
| – | – | – | – | 1.11e+08 | 9.01 | 0.00101 | 112000 | 014-42.3B8 ATRIMER (designed binder, part only; not given: nothing essential, part only) chain, part: EPPTQKPKKIVNAKKDVVNTKMFEELKSRLDTLAQEVALLKEQQALQTVCLKGTKVHMKCFLAFTQTKTFHEASEDCISRGGTLSTPQTGSENDALYEYLRQSVGNEAEIWLGLNVDMTGARIAYKNWETEITAQPCAVLSGAANGKWFDKRCRDQLPYICQFGIV |
